The text below walks through data of PMC5464773 (2017).

Holding throughout (assay): FP
Test [1] deals with Myc-tagged Bcl-xL (human, UniProt Q07817-1 1-233).
Test [2] has as its target T1, Myc-tagged Bcl-w (human, UniProt Q92843 1-193).
T1 chain: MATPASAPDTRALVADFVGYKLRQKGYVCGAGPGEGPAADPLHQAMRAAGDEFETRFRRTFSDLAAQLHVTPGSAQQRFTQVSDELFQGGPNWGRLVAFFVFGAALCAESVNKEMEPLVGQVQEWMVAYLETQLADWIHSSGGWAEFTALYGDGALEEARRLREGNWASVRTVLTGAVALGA

The target of test [3] is Myc-tagged Bcl-2 (human, UniProt P10415 1-239).
Test [4] concerns the target T2, Myc-tagged Mcl-1 (human, UniProt Q07820 1-350).
T2 chain: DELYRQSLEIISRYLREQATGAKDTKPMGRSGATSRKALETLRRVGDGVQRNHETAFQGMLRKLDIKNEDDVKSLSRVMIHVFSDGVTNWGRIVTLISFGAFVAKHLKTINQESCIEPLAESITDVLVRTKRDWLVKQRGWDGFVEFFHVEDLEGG

In test [5] the target is T3, Myc-tagged Bfl-1 (human, UniProt Q16548 1-175).
T3 chain: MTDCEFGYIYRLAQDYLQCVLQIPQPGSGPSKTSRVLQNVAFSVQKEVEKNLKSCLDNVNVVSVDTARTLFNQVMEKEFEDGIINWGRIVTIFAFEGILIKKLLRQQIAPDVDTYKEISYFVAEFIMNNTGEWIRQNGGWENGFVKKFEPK

For test [6], the target named is T3, Myc-tagged Bfl-1.

As usually defined, the Ki is the equilibrium dissociation constant of an inhibitor or competing ligand from its target. Low readings indicate tighter binding, high ones weaker binding.

Like-named read-outs stand apart in the source and are kept apart here. Bounds are passed on as bounds.

Myc-tagged Bcl-2, sequence (P10415 1-211): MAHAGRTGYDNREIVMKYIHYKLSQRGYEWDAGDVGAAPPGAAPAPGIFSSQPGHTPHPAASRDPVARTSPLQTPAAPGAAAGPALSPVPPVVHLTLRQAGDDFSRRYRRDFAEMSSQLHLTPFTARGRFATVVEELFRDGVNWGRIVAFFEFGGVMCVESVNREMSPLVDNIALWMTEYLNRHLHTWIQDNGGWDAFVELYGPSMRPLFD
Myc-tagged Bcl-xL, sequence (Q07817 1-209): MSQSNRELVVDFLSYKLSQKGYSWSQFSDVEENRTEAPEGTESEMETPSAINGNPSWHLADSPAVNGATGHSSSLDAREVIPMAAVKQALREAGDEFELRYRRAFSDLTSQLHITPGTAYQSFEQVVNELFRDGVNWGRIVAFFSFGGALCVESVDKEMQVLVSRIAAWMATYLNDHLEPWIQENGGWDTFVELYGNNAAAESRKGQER

Regarding Ac-QWVREIAAGLRLAADNVNAQLER-NH2 (designed binder) [FS1], the inhibition constant (Ki) was 2400 nM in test [1], over 5000 nM in test [2], over 5000 nM in test [3] and over 5000 nM in test [4].

Take Ac-QWVREIAAQLRRMADDLNAQYER-NH2 [PUMA/FS2 chimeric peptide with the larger residues of FS2 at positions 2a and 2e]: the Ki in test [5] was 2.1 nM. That is a single-digit nanomolar value.

Ac-QWIREIAAGLRRFADILNAQVER-NH2 (designed binder) [FS3]: the inhibitory constant (Ki) was 320 nM in test [1]; 770 nM in test [2]; 2000 nM in test [3]; 2.1 nM in test [6]; 550 nM in test [4].

With Ac-QWAREIGAQLRRMADDLNAQYER-NH2 [PUMA BH3 peptide (23 residues)], the Ki came out at 3 nM in test [2], 4.8 nM in test [6] and 2.4 nM in test [4].

Molecule Ac-QWAREIGAGLRRAADDVNAQVER-NH2 [PUMA/FS2 chimeric peptide with the smaller residues of FS2 at positions 2g, 3d, 4a and 4e] yielded an inhibition constant Ki in test [5] of 600 nM.

For the molecule Ac-QWVREIAAGLRRAADDVNAQVER-NH2 (designed binder) [FS2], the inhibitory constant (Ki) in test [1] is over 5000 nM; in test [2], over 5000 nM; in test [3] it was 2400 nM; in test [6], 21 nM; in test [4], 3200 nM.
